Values of other authors as cited in publication PMC5146272.

What was measured:
Raver1 (Homo sapiens) = Raver1 (Homo sapiens) (UniProt Q8IY67)
[1] = biological target: U2AF35 UHM (Homo sapiens) (UniProt Q01081)
Sequence of U2AF35 UHM (Homo sapiens) (Q01081 43-146, one chain of several): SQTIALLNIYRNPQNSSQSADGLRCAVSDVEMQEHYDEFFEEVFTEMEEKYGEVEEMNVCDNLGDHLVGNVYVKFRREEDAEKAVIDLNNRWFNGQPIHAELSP

Sequence of Raver1 (Homo sapiens) (Q8IY67 2-606): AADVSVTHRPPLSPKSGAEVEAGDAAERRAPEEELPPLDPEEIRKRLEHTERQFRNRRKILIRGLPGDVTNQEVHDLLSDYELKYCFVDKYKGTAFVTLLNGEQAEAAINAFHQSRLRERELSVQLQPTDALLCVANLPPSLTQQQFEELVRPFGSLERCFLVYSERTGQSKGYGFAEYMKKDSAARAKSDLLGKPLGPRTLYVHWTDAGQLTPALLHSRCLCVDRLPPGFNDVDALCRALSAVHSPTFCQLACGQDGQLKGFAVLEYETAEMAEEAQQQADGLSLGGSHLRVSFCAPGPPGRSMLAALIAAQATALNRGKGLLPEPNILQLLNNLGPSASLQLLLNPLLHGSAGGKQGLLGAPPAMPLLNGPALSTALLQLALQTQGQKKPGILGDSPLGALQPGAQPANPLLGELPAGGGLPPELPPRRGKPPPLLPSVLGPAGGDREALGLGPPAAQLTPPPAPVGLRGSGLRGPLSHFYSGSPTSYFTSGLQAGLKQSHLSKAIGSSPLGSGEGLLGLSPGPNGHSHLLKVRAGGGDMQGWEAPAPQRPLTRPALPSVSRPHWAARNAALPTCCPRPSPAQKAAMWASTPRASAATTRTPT
Sequence of U2AF65 PEP (P26368 85-112, one chain of several): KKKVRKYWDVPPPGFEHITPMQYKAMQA
Sequence of PTB RRM (P26599 184-260): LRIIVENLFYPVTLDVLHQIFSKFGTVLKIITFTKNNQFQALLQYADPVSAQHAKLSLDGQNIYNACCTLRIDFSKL

Substance	Kd (Raver1 (Homo sapiens)) [µM]	Kd [1] [nM]
PTB RRM (from UniProt P26599)	100	
U2AF65 PEP (from UniProt P26368)		2
